Experimental findings from article PMC3905015 are described below.

This experiment concerns the target monomeric red fluorescent protein (mRFP). Put plainly: native MS; ESI-TWIMS-MS (nanoESI, Synapt HDMS), purified protein in 50 mM ammonium acetate; gas phase; self-association.

As for “monomeric red fluorescent protein (mRFP)”, the stoichiometry N – broadly, a count of units in the complex or per binding partner – stood at 2.
